Source: PMC7899375 (PLoS ONE, 2021)

Molecular target: WI/05 HA1 monomer (Influenza A virus …, UniProt Q0PED2, strain)
Test: ELISA
Conditions: both partners purified

B1: mAb #1664 (antibody, V domains shown)
VH: EVQVMQSGAEARMTGATVKISCKASGYTFSDYFLHWVKQAPGKGLEWMGLVDVDNGEVRYAEKFQGRVTITADTSTETAYLEMTTVTSGDTAVYYCASTTPRGGNPSVYNYFFVDVWGKGTTVTVSS
VL: QPVLTQSSSASASLGSSVKLTCTLSSGHDNYIIAWHQQQPGKAPRYLMQVGAGGTYNKGSGVPHRFSGSSSGADRYLTISNLQSDDEADYYCETWDSKTVFGGGTTLTVL
notes: also called private mAb; H3-specific mAb; source: HEK 293F cells, transfected (GenScript), conditioned media; purified
B1: no binding (tested: 20 μg/mL).
